Assay results reported in patent US20240124586A1 (WUXI BIOLOGICS IRELAND, published 2024).

Experiments:
[1] = biological target: T1, biotinylated human CTLA-4.ECD.hFc (W316-hPro1.ECD.hFc.Biotin) (human, UniProt P16410 36-161, biotin-labelled (site not stated)); assay: competitive FACS, biotinylated CTLA-4.ECD.hFc on human CD80 CHO-K1 cells (competitor: CD80)
T1 construct: extracellular domain; In-house protein; also called hCTLA-4.ECD.hFc-Biotin; human CTLA-4 protein
Method: (§1) Competitive FACS was used to test whether the antibodies could block human or cynomolgus CTLA-4 binding to hCD80 on cell surface. […] Then the mixtures of antibody and CTLA-4 were added to the cells and incubated for 1 hour at 4° C. The cells were washed two times with 200 μl FACS washing buffer (DPBS containing 1% BSA). Streptavidin PE (BD Pharmingen-554061) 1 to 600 diluted in FACS buffer was added to the cells and incubated at 4° C. for 1 hour. Additional washing steps were performed two times with 200 μL FACS washing buffer followed by centrifugation at 1500 rpm for 4 minutes at 4° C. Finally, the cells were resuspended in 100 μL FACS washing buffer and fluorescence values were measured by flow cytometry and analyzed by FlowJo.

[2] = biological target: cynomolgus CTLA-4 protein (cynomolgus, UniProt G7PL88 36-161, Probably biotinylated for streptavidin-PE detection, as described for the human CTLA-4 reagent in paragraph 775; the letters cannot carry this.); assay: FACS competition: blocks cynomolgus CTLA-4 protein binding to human CD80 engineered cells
Chain of cynomolgus CTLA-4 protein (G7PL88 entry or part of it limits assumed): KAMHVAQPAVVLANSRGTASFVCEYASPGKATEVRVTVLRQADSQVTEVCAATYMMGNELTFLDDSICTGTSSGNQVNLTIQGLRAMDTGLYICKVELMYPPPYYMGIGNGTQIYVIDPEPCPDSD
Method: as §1

[3] = biological target: T2, human PD-1 ECD mouse Fc fusion (W305-hPro1.ECD.mFc) (human, UniProt Q15116 25-170); assay: dual binding ELISA, PD-1 ECD.mFc coated, detection with biotinylated CTLA-4 ECD.hFc; first antibody named, first value; PD-1 coated, biotinylated CTLA-4 detection
T2 construct: extracellular domain; In-house protein; also called hPD-1-ECD; human PD-1 coated on the plate
T2 sequence (Q15116 25-170): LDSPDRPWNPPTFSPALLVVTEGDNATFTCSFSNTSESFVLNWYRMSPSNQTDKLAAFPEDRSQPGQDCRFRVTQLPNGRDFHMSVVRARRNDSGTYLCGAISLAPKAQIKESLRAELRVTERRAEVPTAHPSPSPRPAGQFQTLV
Method: In order to test whether the bispecific antibodies could bind to both hPD-1 and hCTLA-4, an ELISA assay was developed as below. A 96-well ELISA plate (Nunc MaxiSorp, ThermoFisher) was coated overnight at 4° C. with 0.5 μg/ml antigen-1 (hPD-1-ECD, W305-hPro1.ECD.mFc) in carbonate-bicarbonate buffer. After a 1 hour blocking step with 2% (w/v) bovine serum albumin (Pierce) dissolved in PBS, serial dilutions of the different PD-1×CTLA-4 bispecific antibodies in PBS containing 2% BSA PBS were incubated on the plates for 1 hour at room temperature. Following the incubation, plates were washed three times with 300 μL per well of PBS containing 0.5% (v/v) Tween 20. […] After washing the plates three times, Streptavidin-HRP (Lifetechnologies, #SNN1004) (1:20000 diluted) was added and incubated on the plates for 1 hour at room temperature. After washing six times with […] per well of PBS containing 0.5% (v/v) Tween 20, 100 μL tetramethylbenzidine (TMB) substrate was added for the detection per well. The reaction was stopped after approximately 5 minutes through the addition of […] per well of 2 M HCl. The absorbance of the wells was measured at 450 nm with a multiwall plate reader (SpectraMax® M5e).

[4] = biological target: T3, human CD19 on CD19+ B cell lines (Ramos, Raji) (human, UniProt P15391 20-556); assay: affinity by flow cytometry on Ramos cells (bound/free versus bound)
T3 construct: whole, on cells; also called CD19+ Ramos cells; CD19+ Raji cells
T3 sequence (looked up): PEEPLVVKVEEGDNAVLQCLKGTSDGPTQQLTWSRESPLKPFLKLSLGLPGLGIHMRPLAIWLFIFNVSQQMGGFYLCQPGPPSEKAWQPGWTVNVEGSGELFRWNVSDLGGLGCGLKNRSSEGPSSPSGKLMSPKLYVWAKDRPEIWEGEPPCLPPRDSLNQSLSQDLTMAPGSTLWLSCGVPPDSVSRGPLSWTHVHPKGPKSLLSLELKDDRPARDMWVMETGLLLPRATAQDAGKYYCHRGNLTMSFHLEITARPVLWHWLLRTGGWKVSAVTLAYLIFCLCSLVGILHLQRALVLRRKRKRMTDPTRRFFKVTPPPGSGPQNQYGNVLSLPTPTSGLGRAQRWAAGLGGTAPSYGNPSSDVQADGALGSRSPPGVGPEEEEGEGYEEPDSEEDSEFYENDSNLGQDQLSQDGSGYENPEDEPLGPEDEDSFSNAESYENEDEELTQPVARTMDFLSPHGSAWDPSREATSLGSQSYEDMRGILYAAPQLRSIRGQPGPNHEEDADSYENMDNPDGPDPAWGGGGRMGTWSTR
Method: (§2) Binding affinity to CD3 and CD19 was determined by flow cytometry using Jurkat and Ramos cells, respectively. The cells were transferred in to 96-well U-bottom plates (BD) at a density of 5×10⁴ cells/well. Antibodies to be tested were 1:2-fold serially diluted in 1% 1×PBS/1% BSA and incubated with cells at 4° C. for 1 hr. Then, the plates were centrifuged at 1500 rpm for 4 mins and the supernatant discarded. […] The cells were washed once and re-suspended in 100 μL 1×PBS/1% BSA. Fluorescence intensity was measured by flow cytometry (BD Canto II) and analyzed by FlowJo. Fluorescence intensity was converted to bound molecules/cell based on the quantitative beads (Quantum™ MESF Kits, Bangs Laboratories). KD was calculated by Graphpad Prism5.
(§3) The bound IgG/free IgG versus bound IgG was plotted in FIGS. 46A and 46B.

[5] = biological target: T4, human CD3 on CD3+ Jurkat cells (human, UniProt P07766 23-207; P09693 23-182; P04234 22-171); assay: affinity by flow cytometry on Jurkat cells (bound/free versus bound)
T4 construct: whole, on cells; also called CD3 positive Jurkat cells
T4 sequence (P07766 23-207, chain 1 of 3): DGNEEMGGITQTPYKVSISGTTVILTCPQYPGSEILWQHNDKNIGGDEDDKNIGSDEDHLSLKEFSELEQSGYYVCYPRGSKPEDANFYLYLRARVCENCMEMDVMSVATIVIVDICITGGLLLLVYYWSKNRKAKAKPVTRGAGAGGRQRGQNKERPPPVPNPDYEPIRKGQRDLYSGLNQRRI
T4 sequence (P09693 23-182, chain 2 of 3): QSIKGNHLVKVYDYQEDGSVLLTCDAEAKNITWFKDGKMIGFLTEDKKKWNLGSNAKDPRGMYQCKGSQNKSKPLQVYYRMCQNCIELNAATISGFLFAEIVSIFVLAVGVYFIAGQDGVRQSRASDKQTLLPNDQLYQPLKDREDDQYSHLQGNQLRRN
T4 sequence (P04234 22-171, chain 3 of 3): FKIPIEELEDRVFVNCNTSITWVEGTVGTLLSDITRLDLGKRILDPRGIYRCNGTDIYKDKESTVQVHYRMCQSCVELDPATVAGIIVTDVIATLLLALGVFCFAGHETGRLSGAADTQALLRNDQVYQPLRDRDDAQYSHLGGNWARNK
Method: as §2, §3

[6] = biological target: human C1Q (human, UniProt P02745 23-245; P02746 28-253; P02747 29-245); assay: ELISA, antibody coated on the plate, C1q titrated
Chain of human C1Q (P02745 23-245 limits assumed, chain 1 of 3): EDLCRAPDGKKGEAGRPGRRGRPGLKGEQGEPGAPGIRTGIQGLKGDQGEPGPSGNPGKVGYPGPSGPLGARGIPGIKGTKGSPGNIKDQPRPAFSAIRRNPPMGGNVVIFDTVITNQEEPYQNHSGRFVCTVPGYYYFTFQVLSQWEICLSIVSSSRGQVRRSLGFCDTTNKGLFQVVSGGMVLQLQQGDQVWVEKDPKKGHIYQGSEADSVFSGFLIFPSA
Chain of human C1Q (P02746 28-253 limits assumed, chain 2 of 3): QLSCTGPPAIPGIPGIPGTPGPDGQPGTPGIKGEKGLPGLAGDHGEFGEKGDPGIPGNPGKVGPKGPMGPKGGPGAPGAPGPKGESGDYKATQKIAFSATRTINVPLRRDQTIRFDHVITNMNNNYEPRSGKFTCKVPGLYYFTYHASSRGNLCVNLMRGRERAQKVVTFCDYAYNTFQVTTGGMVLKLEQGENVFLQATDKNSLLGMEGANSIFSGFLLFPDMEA
Chain of human C1Q (P02747 29-245 limits assumed, chain 3 of 3): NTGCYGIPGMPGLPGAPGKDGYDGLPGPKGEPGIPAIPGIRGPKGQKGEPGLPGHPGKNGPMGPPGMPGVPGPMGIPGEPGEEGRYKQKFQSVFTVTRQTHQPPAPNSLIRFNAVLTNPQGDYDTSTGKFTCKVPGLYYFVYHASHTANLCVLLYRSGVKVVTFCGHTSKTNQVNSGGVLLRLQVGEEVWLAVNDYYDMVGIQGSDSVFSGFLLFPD
Method: ELISA Plates (Nunc) were coated with antibody samples at 3 μg/mL overnight at 4° C. After blocking and washing, C1q was gradient diluted starting from 600 μg/mL and incubated at room temperature for 2 hr. The plates were then washed and subsequently incubated with sheep anti-human C1q Ab-HRP for 1 hr. After washing, TMB substrate was added and the interaction was stopped by 2 M HCl. The absorbance at 450 nm was read using a microplate reader (Molecular Device).
The binding activity of antibodies to C1Q was tested by ELISA.

[7] = biological target: T3, human CD19 on CD19+ B cell lines …; assay: cell-based or functional assay

T1 sequence (P16410 36-161): as the sequence (G7PL88 entry or part of it limits assumed) above, with N14S, T18I, M106L counted along it

B1: W3248-U6T5.G25-1.uIgG4.SP, bispecific anti-PD-1 x CTLA-4 (bispecific antibody)
heavy: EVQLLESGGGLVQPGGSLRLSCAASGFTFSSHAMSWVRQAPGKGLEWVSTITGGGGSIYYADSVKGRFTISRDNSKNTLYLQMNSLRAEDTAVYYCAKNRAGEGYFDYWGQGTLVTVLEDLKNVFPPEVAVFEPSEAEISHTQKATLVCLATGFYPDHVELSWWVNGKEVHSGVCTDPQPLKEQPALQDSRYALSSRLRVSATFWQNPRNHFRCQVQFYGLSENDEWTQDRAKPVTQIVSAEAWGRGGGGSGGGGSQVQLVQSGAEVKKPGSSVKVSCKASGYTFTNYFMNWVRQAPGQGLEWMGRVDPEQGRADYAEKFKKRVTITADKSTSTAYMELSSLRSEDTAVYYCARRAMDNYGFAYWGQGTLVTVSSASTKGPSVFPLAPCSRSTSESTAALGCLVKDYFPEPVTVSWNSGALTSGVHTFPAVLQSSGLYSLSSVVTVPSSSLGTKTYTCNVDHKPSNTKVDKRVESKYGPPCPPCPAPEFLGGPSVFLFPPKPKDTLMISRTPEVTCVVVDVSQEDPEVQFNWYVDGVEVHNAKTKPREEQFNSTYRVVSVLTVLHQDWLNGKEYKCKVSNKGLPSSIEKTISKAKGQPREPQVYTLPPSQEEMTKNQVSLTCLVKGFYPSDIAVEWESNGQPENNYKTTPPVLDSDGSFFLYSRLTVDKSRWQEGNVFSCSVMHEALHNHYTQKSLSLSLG
light 1: SYELTQPLSVSVALGQTARITCGGDNIGNKDVHWYQQKPGQAPVLVIYRDSNRPSGIPEGFSGSNSGNTATLTISRAQAGDEADYYCQVWDSIWVFGGGTKLTVLPDIQNPDPAVYQLRDSKSSDKSVCLFTDFDSQTQVSQSKDSDVYITDKCVLDMRSMDFKSNSAVAWSQKSDFACANAFQNSIIPEDTFFPSPESS
light 2: EIVLTQSPDFQSVTPKEKVTITCSANSALSYMYWYQQKPDQSPKLWVHGTSNLASGVPSRFSGSGSGTDFTLTINSLEAEDAATYYCHHWSNTQWTFGGGTKVEIKRTVAAPSVFIFPPSDEQLKSGTASVVCLLNNFYPREAKVQWKVDNALQSGNSQESVTEQDSKDSTYSLSSTLTLSKADYEKHKVYACEVTHQGLSSPVTKSFNRGEC
notes: IgG4 (S228P); also called WBP3248-U6T5.G25-1-uIgG4.SP; U6T5.G25.IgG4
In the case of B1, the IC50 [1] is reported as 0.758 nM and the IC50 [2] is reported as 2.14 nM.

B2: W3248-U6T1.G25R-1.uIgG4.SP, bispecific anti-PD-1 x CTLA-4 (bispecific antibody)
heavy: EVQLLESGGGLVQPGGSLRLSCAASGFTFSSHAMSWVRQAPGKGLEWVSTITGGGGSIYYADSVKGRFTISRDNSKNTLYLQMNSLRAEDTAVYYCAKNRAGEGYFDYWGQGTLVTVSSASTKGPSVFPLAPCSRSTSESTAALGCLVKDYFPEPVTVSWNSGALTSGVHTFPAVLQSSGLYSLSSVVTVPSSSLGTKTYTCNVDHKPSNTKVDKRVGGGGSGGGGSQVQLVESGGGVVQPGRSLRLSCAASGFTFSSYTMHWVRQAPGKGLEWVTFISYDGNNKYYADSVKGRFTISRDNSKNTLYLQMNSLRAEDTAIYYCARTGWLGPFDYWGQGTLVTVLEDLKNVFPPEVAVFEPSEAEISHTQKATLVCLATGFYPDHVELSWWVNGKEVHSGVCTDPQPLKEQPALQDSRYALSSRLRVSATFWQNPRNHFRCQVQFYGLSENDEWTQDRAKPVTQIVSAEAWGRYGPPCPPCPAPEFLGGPSVFLFPPKPKDTLMISRTPEVTCVVVDVSQEDPEVQFNWYVDGVEVHNAKTKPREEQFNSTYRVVSVLTVLHQDWLNGKEYKCKVSNKGLPSSIEKTISKAKGQPREPQVYTLPPSQEEMTKNQVSLTCLVKGFYPSDIAVEWESNGQPENNYKTTPPVLDSDGSFFLYSRLTVDKSRWQEGNVFSCSVMHEALHNHYTQKSLSLSLG
light 1: SYELTQPLSVSVALGQTARITCGGDNIGNKDVHWYQQKPGQAPVLVIYRDSNRPSGIPEGFSGSNSGNTATLTISRAQAGDEADYYCQVWDSIWVFGGGTKLTVLGQPKAAPSVTLFPPSSEELQANKATLVCLISDFYPGAVTVAWKADSSPVKAGVETTTPSKQSNNKYAASSYLSLTPEQWKSHKSYSCQVTHEGSTVEKTVAPTECS
light 2: not shown
notes: IgG4 (S228P); also called U6T1.G25R.IgG4
In the case of B2, the EC50 [3] is reported as 0.107 nM.

B3: W3438-T3U4.E17-1.uIgG4.SP, bispecific anti-CD3 x CD19 (bispecific antibody)
heavy 1: QVQLVQSGAEVKKPGSSVKVSCKASGFAFTDYYIHWVRQAPGQGLEWMGWISPGNVNTKYNENFKGRVTITADKSTSTAYMELSSLRSEDTAVYYCARDGYSLYYFDYWGQGTLVTVLEDLKNVFPPEVAVFEPSEAEISHTQKATLVCLATGFYPDHVELSWWVNGKEVHSGVCTDPQPLKEQPALQDSRYALSSRLRVSATFWQNPRNHFRCQVQFYGLSENDEWTQDRAKPVTQIVSAEAWGRYGPPCPPCPAPEFLGGPSVFLFPPKPKDTLMISRTPEVTCVVVDVSQEDPEVQFNWYVDGVEVHNAKTKPREEQFNSTYRVVSVLTVLHQDWLNGKEYKCKVSNKGLPSSIEKTISKAKGQPREPQVYTLPPCQEEMTKNQVSLWCLVKGFYPSDIAVEWESNGQPENNYKTTPPVLDSDGSFFLYSRLTVDKSRWQEGNVFSCSVMHEALHNHYTQKSLSLSLGK
light 1: DIVMTQSPDSLAVSLGERATINCKSSQSLLNSRTRKNYLAWYQQKPGQPPKLLIYWASTRQSGVPDRFSGSGSGTDFTLTISSLQAEDVAVYYCTQSHTLRTFGGGTKVEIKPDIQNPDPAVYQLRDSKSSDKSVCLFTDFDSQTQVSQSKDSDVYITDKCVLDMRSMDFKSNSAVAWSQKSDFACANAFQNSIIPEDTFFPSPESS
heavy 2: QMQLVQSGPEVKKPGTSVKVSCKASGYAFTSYNMYWVRQARGQRLEWIGYIDPYNGDTTYNQKFKGRVTITRDMSTSTAYMELSSLRSEDTAVYYCLTTAYAMDYWGQGTLVTVSSASTKGPSVFPLAPCSRSTSESTAALGCLVKDYFPEPVTVSWNSGALTSGVHTFPAVLQSSGLYSLSSVVTVPSSSLGTKTYTCNVDHKPSNTKVDKRVESKYGPPCPPCPAPEFLGGPSVFLFPPKPKDTLMISRTPEVTCVVVDVSQEDPEVQFNWYVDGVEVHNAKTKPREEQFNSTYRVVSVLTVLHQDWLNGKEYKCKVSNKGLPSSIEKTISKAKGQPREPQVCTLPPSQEEMTKNQVSLSCAVKGFYPSDIAVEWESNGQPENNYKTTPPVLDSDGSFFLVSRLTVDKSRWQEGNVFSCSVMHEALHNHYTQKSLSLSLGK
light 2: DIQLTQSPSFLSASVGDRVTITCSASSTVNYMHWYQQKPGKAPKLLIYSTSNLASGVPSRFSGSGSGTEFTLTISSLQPEDFATYYCHQWSSYPYTFGQGTKLEIKRTVAAPSVFIFPPSDEQLKSGTASVVCLLNNFYPREAKVQWKVDNALQSGNSQESVTEQDSKDSTYSLSSTLTLSKADYEKHKVYACEVTHQGLSSPVTKSFNRGEC
notes: also called E17-Design_2-QQQQ (IgG4); E17-IgG4; copies: 1 + 1 + 1 + 1
For B3, the Kd [4] was 23 nM, the Kd [5] was 9 nM and the binding result [6] was “no binding (tested: about 1500 nM C1q)”. The “EC50 of T-cell directed killing of malignant B cells (PI-positive Raji cells)” value [7] was 0.057 nM, the “EC50 of T-cell engaged malignant B cell killing” value [7] was 0.0177 nM and the “EC50 of cell lysis, CD8+ T cells and Raji cells, 4 hours” value [7] was 15 nM.
